Results on five molecules are retold here after paper doi:10.1101/2024.07.10.602929 (bioRxiv, 2024).

Common to all, as to experiment: BLI; Octet Red 96; N-terminally biotinylated peptides immobilised on High Precision Streptavidin (SAX) biosensors; purified hATG8 proteins as analyte in increasing concentrations; steady-state evaluation, one-site binding model; individual measurements unless stated otherwise
Details in all cases: both partners purified

In experiment [1] the target is T1, GABARAP (γ-aminobutyric acid type A receptor-associated protein) (human, UniProt O95166 1-117).
T1 construct: GABARAP, human, full-length (unprocessed) version; For the NMR titrations the same construct was made 15N-labelled in M9 minimal medium; also called 15N-GABARAP; free GABARAP; source: E. coli BL21(DE3), pGEX-4-T2, purified (Glutathione Sepharose 4B, thrombin cleavage, SEC)

Another experiment deals with T2, GABARAPL1 (human, UniProt Q9H0R8 1-117).
T2 construct: GABARAPL1, human, full-length (unprocessed) version; source: E. coli BL21(DE3), pGEX-4-T2, purified (Glutathione Sepharose 4B, thrombin cleavage, SEC)

The target in another experiment is T3, GABARAPL2 (human, UniProt P60520 1-117).
T3 construct: GABARAPL2, human, full-length (unprocessed) version; source: E. coli BL21(DE3), pGEX-4-T2, purified (Glutathione Sepharose 4B, thrombin cleavage, SEC)

Another experiment addresses T4, LC3A (human, UniProt Q9H492 1-121).
T4 construct: LC3A, human, full-length (unprocessed) version; also called MAP1LC3 (microtubule-associated protein 1 light chain 3) A; source: E. coli BL21(DE3), pGEX-4-T2, purified (Glutathione Sepharose 4B, thrombin cleavage, SEC)

The next experiment addresses T5, GABARAP Y49A/L50A (human, UniProt O95166 1-117, Y49A | L50A).
T5 construct: GABARAP, human, full-length (unprocessed) version with Y49A and L50A; source: E. coli BL21(DE3), pGEX-4-T2, purified (Glutathione Sepharose 4B, thrombin cleavage, SEC)

The next experiment has as its target T6, GABARAPL1 Y49A/L50A (human, UniProt Q9H0R8 1-117, Y49A | L50A).
T6 construct: GABARAPL1, human, full-length (unprocessed) version with Y49A and L50A; everywhere else Y49A/L50A; also called GABARAPL1_(Y49A/L59A); source: E. coli BL21(DE3), pGEX-4-T2, purified (Glutathione Sepharose 4B, thrombin cleavage, SEC)

Where no end group is shown, it is not given here. [ ]: non-standard residue; d: D form. The star is where a group is joined. Biotin = O=C1N[C@H]2[C@H](CS[C@H]2CCCCC(=O)*)N1; pY = N[C@@H](Cc1ccc(OP(=O)(O)O)cc1)C(=O)O

T3 sequence (P60520 whole entry): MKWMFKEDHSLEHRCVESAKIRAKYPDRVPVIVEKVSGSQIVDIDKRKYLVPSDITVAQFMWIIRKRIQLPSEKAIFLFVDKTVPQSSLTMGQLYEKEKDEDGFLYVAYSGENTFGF
T1 sequence (O95166 whole entry): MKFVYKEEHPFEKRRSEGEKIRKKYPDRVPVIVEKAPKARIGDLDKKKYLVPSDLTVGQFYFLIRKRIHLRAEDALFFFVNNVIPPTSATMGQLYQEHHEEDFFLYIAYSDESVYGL
T6 sequence (Q9H0R8 whole entry Y49A/L50A): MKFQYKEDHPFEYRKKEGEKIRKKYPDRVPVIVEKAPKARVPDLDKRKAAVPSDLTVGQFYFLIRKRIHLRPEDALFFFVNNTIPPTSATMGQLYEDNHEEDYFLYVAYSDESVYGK
T5 sequence (O95166 whole entry Y49A/L50A): as the sequence (O95166 whole entry) above, with Y49A, L50A counted along it

B1: EGFR LIR2 peptide phosphorylated at Y1197 (peptide, UniProt P00533 1190-1210, looked up)
peptide: Biotin-STAENAE[pY]LRVAPQSSEFIGA
notes: EGFR residues 1190-1210 (LIR2); also called LIR2 pY1197; source: synthetic peptide, bought: CASLO (≥95% purity)
As for B1, the binding result (in experiment [1]; with GABARAPL1; with GABARAPL2; with LC3A) was “binds” throughout.

B2: PCM1 LIR peptide (pericentriolar material 1 protein residues 1954-1968), N-terminally biotinylated (peptide, UniProt Q15154 1954-1968, looked up)
peptide: Biotin-ISQKSDEEDFVKVED
notes: Pericentriolar material 1 protein (PCM1), LIR motif, residues 1954-1968; source: synthetic peptide, bought: CASLO (≥95% purity)
For the molecule B2, the Kd in experiment [1] was found to be 4.2 µM; with GABARAP Y49A/L50A it was 99.2 µM; in the experiment with GABARAPL1 Y49A/L50A, 273 µM.

B3: EGFR LIR1 peptide phosphorylated at Y1092 (peptide, UniProt P00533 1076-1099, looked up)
peptide: Biotin-ALTEDSIDDTFLPVPE[pY]INQSVPK
notes: EGFR residues 1076-1099 (LIR1); also called phosphorylated (p) EGFR LIR1 variant pY1092; source: synthetic peptide, bought: CASLO (≥95% purity)
B3: the binding result in the experiment with GABARAPL2 and in the experiment with LC3A was “binds” in each case.

B4: EGFR LIR1 peptide (EGFR residues 1076–1099), N-terminally biotinylated (peptide)
peptide: Biotin-ALTEDSIDDTFLPVPEYINQSVPK
notes: Epidermal growth factor receptor (EGFR), residues 1076-1099 of the regulatory C-terminal domain, core LIR FLPV at 1086-1089; also called EGFR LIR1_(1076–1099); source: synthetic peptide, bought: CASLO (≥95% purity)
In the experiment with GABARAPL1, B4 came in with a Kd of 29.7 µM. That is a double-digit micromolar value.

B5: EGFR LIR2 peptide (EGFR residues 1190–1210), N-terminally biotinylated (peptide, UniProt P00533 1190-1210, looked up)
peptide: Biotin-STAENAEYLRVAPQSSEFIGA
notes: Epidermal growth factor receptor (EGFR), residues 1190-1210, core LIR YLRV at 1197-1200; source: synthetic peptide, bought: CASLO (≥95% purity)
Take B5: the binding result in the experiment with GABARAPL1, with GABARAPL2 and in the experiment with LC3A was “binds” in each case.
